Where no end group is shown, it is not given here.
Target: Vimentin from bovine aortic endothelial cells (bovine, UniProt P48616 2-466)
Experiment: affinity chromatography of BAEC cell fractions on immobilized peptide
Method: Membrane and cytosol fractions from human bone marrow endothelial cells and bovine aortic endothelial cells were prepared and used to identify the components from within these fractions that bind to the peptides using affinity chromatography). […] Cell surface nucleolin is present at higher concentrations in actively dividing cells and is down regulated in cells when they become quiescent. Nucleolin is the apparent cell surface receptor of E-coli intimin-gamma. Cell bound intimin has been proposed to trigger a host cell response similar to the extension of filipodia when cells bind to laminin. […] Table 3 provides a summary of peptide-binding partners (putative receptors) identified by affinity chromatography of cell lysates.

Chain of Vimentin from bovine aortic endothelial cells (P48616 2-466 limits assumed): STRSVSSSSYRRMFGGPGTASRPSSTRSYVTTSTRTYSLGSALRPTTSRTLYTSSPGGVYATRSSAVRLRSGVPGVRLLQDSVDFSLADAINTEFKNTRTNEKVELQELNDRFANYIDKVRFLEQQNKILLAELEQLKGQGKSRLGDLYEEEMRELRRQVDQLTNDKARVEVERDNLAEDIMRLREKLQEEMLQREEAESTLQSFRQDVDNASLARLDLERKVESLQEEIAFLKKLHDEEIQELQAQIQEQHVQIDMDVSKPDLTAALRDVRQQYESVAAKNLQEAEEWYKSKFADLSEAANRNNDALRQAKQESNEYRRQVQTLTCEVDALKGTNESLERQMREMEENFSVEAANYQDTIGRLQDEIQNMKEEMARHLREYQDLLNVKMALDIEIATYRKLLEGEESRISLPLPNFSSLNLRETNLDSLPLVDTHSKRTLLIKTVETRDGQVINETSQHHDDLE

| binding result | Binder |
| --- | --- |
| binds | QRSWTLDSALSMGGGS (also: biotinylated, position not given here, 12-mer with the C-terminal GGGS linker) [peptide L12 (SEQ ID NO:7)] |
| binds | SYSQMDPPRSLPGGGS (also: biotinylated, position not given here, 12-mer with the C-terminal GGGS linker) [peptide R8 (SEQ ID NO:14)] |
